Laboratory results published in patent publication US20060166920A1, “Oligonucleotide based therapeutics” (Regents of the University of Michigan, priority 2004, published 2006).

B1: siRNA #3: Bcl-xL small hairpin siRNA cassette, SEQ ID NO: 5, 76 bp (nucleic acid, listed as Homo sapiens)
DNA: GGATCCCGCGATCCGACTCACCAATACCTTTGATATCCGAGGTATTGGTGAGTCGGATCGTTTTTTCCAAAAGCTT
modifications: expressed or natural sequence; the letters are possibly those of the target site
B2: siRNA #2: Bcl-xL small hairpin siRNA cassette, SEQ ID NO: 4, 76 bp (nucleic acid, listed as Homo sapiens)
DNA: GGATCCCGCTTGTCTACGCTTTCCACGCATTGATATCCGTGCGTGGAAAGCGTAGACAAGTTTTTTCCAAAAGCTT
modifications: expressed or natural sequence; the letters are possibly those of the target site

Assays:
human Bcl-xL [1] = assay: Western blot of PC-3 cells transfected with Bcl-xL siRNA cassettes; assay type: cell-based; conditions: inferred from transfection efficiency of 40% to 50%
Description: (§1) Human prostate cancer PC-3 cells and human breast cancer MCF-7 cells were transfected with the designed Bcl-xL dsRNA (siRNA) cassettes, using a transferrin-liposome system (LipofectaminePlus, Invitrogen). Briefly, 5×10^5 cells were plated per well in 6-well plates. After overnight culture, the cells were 60% to 70% confluent. The transfection was performed according to the manufacturer's instruction, with 0.4 μg siRNA cassette DNA per well. The cells were cultured for 48 hr, then harvested and cell lysates were made for Western blot analysis. 15 μg of protein were added to each lane for SDS-PAGE. […] Similar results were also observed in MCF-7 cells (See, e.g., FIG. 2). […] Therefore, with efficient delivery to the cells, the Bcl-xL siRNA effectively induces cell death.

Bcl-xS [2] = assay: as above; assay type: cell-based, human; conditions: 0.4 μg siRNA cassette DNA per well, 48 hr
Description: as §1

[3] = tested on: human breast cancer MCF-7 cells; assay: Cell death of MCF-7 cells after transfection; assay type: cell-based; conditions: MCF-7 cells 48 hr after transfection of siRNA cassette
Description: as §1
MCF-7 and PC-3 cells were transfected with psiBcl-xL (transfection conditions were performed as described above). In some experiments, FuGene 6 (Roche) was used due to low toxicity and high efficiency for plasmid transfection. Briefly, 60% confluent cells were transfected with 1-3 μg psiBcl-xL or psiLuc DNA per well in a 6-well plate (DNA:FuGene 6 ratio=1 μg:3 μl). […] The transfection efficiency of FuGene 6 (as detected by green fluorescence protein (GFP) expression; psiBcl-xL posseses the green fluorescence protein (GFP) gene, See, e.g., FIG. 4) for MCF-7 cells was about 40% -50%. […]

human Bcl-xL [4] = assay: Western blot of MCF-7 cells transfected with Bcl-xL siRNA cassettes; assay type: cell-based
Description: as §1

Bcl-xS [5] = assay: as above; assay type: cell-based, human; conditions: 0.4 μg siRNA cassette DNA per well, 48 hr
Description: as §1

Row | Molecule | Bcl-xL gene knockdown in the cells transfected (human Bcl-xL [1]) [%] | effect on Bcl-xS expression (Bcl-xS [2]) | cell death [3] | down-regulation of Bcl-xL (human Bcl-xL [4]; 0.4 μg siRNA cassette DNA per well, LipofectaminePlus, 48 hr) [%] | Bcl-xL down-regulation in the transfected cells (human Bcl-xL [4]; inferred from transfection efficiency of 40%-50%) [%] | effect on Bcl-xS expression (Bcl-xS [5])
1 | B1 | ~100 | without significantly affecting Bcl-xS expression | somewhat less cell death | – | – | –
2 | B2 | ~100 | without significantly affecting Bcl-xS expression | up to 50% | > 50 | ~100 | without significantly affecting Bcl-xS expression
